Assay results published in PMC5013595.

Assays:
[1] = secretion into S2 culture medium; conditions: glycan lost; control: wild type
[2] = size-exclusion chromatography; conditions: glycan lost; control: glycosylated IFNγR2

Protein	expression_or_secretion [1]	oligomerisation [2]
interferon-γ receptor 2 (IFNγR2): N110Q (protein) parent chain: MRPTLLWSLLLLLGVFAAAAAAPPDPLSQLPAPQHPKIRLYNAEQVLSWEPVALSNSTRPVVYQVQFKYTDSKWFTADIMSIGVNCTQITATECDFTAASPSAGFPMDFNVTLRLRAELGALHSAWVTMPWFQHYRNVTVGPPENIEVTPGEGSLIIRFSSPFDIADTSTAFFCYYVHYWEKGGIQQVKGPFRSNSISLDNLKPSRVYCLQVQAQLLWNKSNIFRVGHLSNISCYETMADASTELQQVILISVGTFSLLSVLAGACFFLVLKYRGLIKYWFHTPPSIPLQIEEYLKDPTQPILEALDKDSSPKDDVWDSVSIISFPEKEQEDVLQTL	abolishes	–
interferon-γ receptor 2 (IFNγR2): PNGase F (protein) parent chain: MRPTLLWSLLLLLGVFAAAAAAPPDPLSQLPAPQHPKIRLYNAEQVLSWEPVALSNSTRPVVYQVQFKYTDSKWFTADIMSIGVNCTQITATECDFTAASPSAGFPMDFNVTLRLRAELGALHSAWVTMPWFQHYRNVTVGPPENIEVTPGEGSLIIRFSSPFDIADTSTAFFCYYVHYWEKGGIQQVKGPFRSNSISLDNLKPSRVYCLQVQAQLLWNKSNIFRVGHLSNISCYETMADASTELQQVILISVGTFSLLSVLAGACFFLVLKYRGLIKYWFHTPPSIPLQIEEYLKDPTQPILEALDKDSSPKDDVWDSVSIISFPEKEQEDVLQTL	–	increases
interferon-γ receptor 2 (IFNγR2): N137Q (protein) parent chain: MRPTLLWSLLLLLGVFAAAAAAPPDPLSQLPAPQHPKIRLYNAEQVLSWEPVALSNSTRPVVYQVQFKYTDSKWFTADIMSIGVNCTQITATECDFTAASPSAGFPMDFNVTLRLRAELGALHSAWVTMPWFQHYRNVTVGPPENIEVTPGEGSLIIRFSSPFDIADTSTAFFCYYVHYWEKGGIQQVKGPFRSNSISLDNLKPSRVYCLQVQAQLLWNKSNIFRVGHLSNISCYETMADASTELQQVILISVGTFSLLSVLAGACFFLVLKYRGLIKYWFHTPPSIPLQIEEYLKDPTQPILEALDKDSSPKDDVWDSVSIISFPEKEQEDVLQTL	abolishes	–
interferon-γ receptor 2 (IFNγR2): N231Q (protein) parent chain: MRPTLLWSLLLLLGVFAAAAAAPPDPLSQLPAPQHPKIRLYNAEQVLSWEPVALSNSTRPVVYQVQFKYTDSKWFTADIMSIGVNCTQITATECDFTAASPSAGFPMDFNVTLRLRAELGALHSAWVTMPWFQHYRNVTVGPPENIEVTPGEGSLIIRFSSPFDIADTSTAFFCYYVHYWEKGGIQQVKGPFRSNSISLDNLKPSRVYCLQVQAQLLWNKSNIFRVGHLSNISCYETMADASTELQQVILISVGTFSLLSVLAGACFFLVLKYRGLIKYWFHTPPSIPLQIEEYLKDPTQPILEALDKDSSPKDDVWDSVSIISFPEKEQEDVLQTL	abolishes	–
interferon-γ receptor 2 (IFNγR2): Endo H (protein) parent chain: MRPTLLWSLLLLLGVFAAAAAAPPDPLSQLPAPQHPKIRLYNAEQVLSWEPVALSNSTRPVVYQVQFKYTDSKWFTADIMSIGVNCTQITATECDFTAASPSAGFPMDFNVTLRLRAELGALHSAWVTMPWFQHYRNVTVGPPENIEVTPGEGSLIIRFSSPFDIADTSTAFFCYYVHYWEKGGIQQVKGPFRSNSISLDNLKPSRVYCLQVQAQLLWNKSNIFRVGHLSNISCYETMADASTELQQVILISVGTFSLLSVLAGACFFLVLKYRGLIKYWFHTPPSIPLQIEEYLKDPTQPILEALDKDSSPKDDVWDSVSIISFPEKEQEDVLQTL	–	no change
interferon-γ receptor 2 (IFNγR2): N56Q, N110Q, N137Q and N231Q (protein) parent chain: MRPTLLWSLLLLLGVFAAAAAAPPDPLSQLPAPQHPKIRLYNAEQVLSWEPVALSNSTRPVVYQVQFKYTDSKWFTADIMSIGVNCTQITATECDFTAASPSAGFPMDFNVTLRLRAELGALHSAWVTMPWFQHYRNVTVGPPENIEVTPGEGSLIIRFSSPFDIADTSTAFFCYYVHYWEKGGIQQVKGPFRSNSISLDNLKPSRVYCLQVQAQLLWNKSNIFRVGHLSNISCYETMADASTELQQVILISVGTFSLLSVLAGACFFLVLKYRGLIKYWFHTPPSIPLQIEEYLKDPTQPILEALDKDSSPKDDVWDSVSIISFPEKEQEDVLQTL	abolishes	–
